# Where no end group is shown, it is not given here.
# B1: 2E11 HMGB1 mAb (antibody, V domains shown)
# VH: QVQLQQSGPELVRPGTSVKISCKTSGYTFLTYWMNWVKQRPGQGLEWIGQIFPASDNTYYNEMFKDKATLTVDTSSSTAYIHLSSLTSEDTAVYFCAREDSMDYWGQGTSVTVSS
# VL: DIQMTQTTSSLSASLGDRVTVSCSASRGINNYLNWYQQKPDGTVKFLIYYTSSLHSGVPSRFSGSGSGTDYSLTISNLEPEDIATYYCQQYSKLPWTFGGGTKLEFK
# notes: Murine hybridoma monoclonal antibody (ATCC PTA-5431); also called 2E111-1-1-2; CT3-2E11
# B2: 2G7 HMGB1 mAb (antibody, V domains shown)
# VH: QVQLQQSGAELVRPGSSVKISCKASGYAFSSYWMNWVKQRPGQGLEWIGQIYPGDGDTNYNGKFKGKATLTSDKSSSTAYMQLSSLTSEDSAVYFCARREPYGSYVGFGFWGQGTLVTVSA
# VL: ENVLTQSPAIMSASPGEKVTMTCSASSSVSYMHWYQQKSSTSPKLWIYDTSKLASGVPGRFSGSGSGNSYSLTISSMEAEDVATYYCFQGSGYPPTFGGGTKLEIK
# notes: Murine hybridoma monoclonal antibody (ATCC PTA-5432); also called 3-2G7-1-1-1; CT3-2G7
# B3: 6E6 HMGB1 mAb (antibody, V domains shown)
# VH: EVQLQQSGAELVKPGASVKLSCTASGFNIKDTYMHWVKQRPEQGLEWIGRIDPANGNTKYDPKFQGKATITADTSSNTAYLQLSSLTSEDTAVYYCARGAYWGQGTLVTVSA
# VL: DIVLTQSPASLAVSLGQRATISCKASQSVDYDGDSYMNWYQQKPGQPPKLLIYAASNLESGIPARFSGSGSGTDFTLNIHPVEEEDAATYYCQQSNEDPFTFGSGTKLEIK
# notes: Murine hybridoma monoclonal antibody (ATCC PTA-5433); also called 6E6-7-1-1; CT3-6E6
# B4: peptide corresponding to amino acid residues 46-63 of human HMGB1 (peptide)
# peptide: SERWKTMSAKEKGKFEDM
# modifications: also: biotinylated (position not given here)
# notes: also called HMGB1 46-63 peptide; huHMGB1-46-63-B
# B5: peptide corresponding to amino acid residues 61-78 of human HMGB1 (peptide)
# peptide: EDMAKADKARYEREMKTY
# modifications: also: biotinylated (position not given here)
# notes: also called HMGB1 61-78 peptide; huHMGB1-61-78-B
# B6: peptide corresponding to amino acid residues 151-168 of human HMGB1 (peptide)
# peptide: LKEKYEKDIAAYRAKGKP
# modifications: also: biotinylated (position not given here)
# Experiments:
# [1] = target: B6; assay: peptide ELISA (FIG. 13B)
# Procedure: (§1) Biotinylated peptides bound to React-Bind Streptavidin-Coated Plates (Pierce, Rockford, Ill., Catalog # 15501) and non-biotinylated peptides bound to poly-D-lysine coated ELISA plates were used in anti-peptide ELISAs. Biotinylated peptides corresponding to particular 18 amino acid regions of human HMGB1, as well as a longer peptide corresponding to amino acid residues 9-85 of human HMGB1, were prepared and analyzed for binding to particular anti-HMGB1 monoclonal antibodies by ELISA. These peptides, and their respective sequences, are depicted in FIG. 13A. Poly-D-lysine coated plates were prepared by adding 60-100 μl/well of 0.1 mg/ml solution of poly-D-lysine in water. Plates were then incubated at room temperature for 5 minutes and were rinsed with water to remove the solution.
# (§2) Briefly, using the molecular weight of the respective peptide, 1 mM peptide solutions were prepared in pyrogen-free water and diluted in 1× phosphate buffered saline. Plate wells were washed three times with 200 μl of PBS and 100 μl of the various peptide solutions were added to designated wells. The plates were then covered and incubated for 60 minutes at room temperature. The wells were then washed three times with PBS, 0.05% polyoxyethylenesorbitan (referred to herein as Tween 20™) using a volume greater than 100 μl. 200 μl of blocking buffer (5% nonfat dry milk in PBS, 0.05% Tween 20™) was added to each of the wells. The plates were covered and incubated for 60 minutes at room temperature. The wells were then washed three times with PBS, 0.05% Tween 20™ using a volume greater than 100 μl.
# [2] = target: T1, peptide corresponding to amino acid residues 157-174 of human HMGB1 (human); assay: peptide ELISA
# T1 construct: Non-biotinylated; also called HMGB1 157-174 peptide; Human HMGB1-157-174
# T1 peptide: KDIAAYRAKGKPDAAKKG
# [3] = target: T2, peptide corresponding to amino acid residues 143-160 of human HMGB1 (human); assay: peptide ELISA
# T2 construct: Non-biotinylated
# T2 peptide: PYEKKAAKLKEKYEKDIA
# [4] = target: B4; assay: peptide ELISA (FIG. 13B)
# Procedure: as §1, §2
# CHO HMGB2 = target: T3, CHO HMGB2 (Chinese hamster (CHO cells), UniProt A0A8C2QD03 1-210); assay: Western blot
# T3 construct: also called non-recombinant (natural) HMGB2 from Chinese Hamster Ovary (CHO) cells
# T3 sequence: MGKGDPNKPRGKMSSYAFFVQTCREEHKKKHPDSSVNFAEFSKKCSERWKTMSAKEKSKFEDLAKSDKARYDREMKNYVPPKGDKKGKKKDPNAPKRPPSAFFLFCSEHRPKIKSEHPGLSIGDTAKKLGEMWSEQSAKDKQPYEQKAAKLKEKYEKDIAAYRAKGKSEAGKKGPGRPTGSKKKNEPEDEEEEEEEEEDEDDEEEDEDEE
# [5] = target: T4, peptide consisting of a scrambled sequence of amino acid residues 46-63 of human HMGB1; assay: peptide ELISA
# T4 construct: Non-biotinylated; scrambled control; also called Human HMGB1-46-63-scr
# T4 peptide: RMKEESSAKDGWFTEMKK
# [6] = target: T5, peptide corresponding to amino acid residues 40-57 of human HMGB1 (human); assay: peptide ELISA
# T5 construct: Non-biotinylated; also called HMGB1 40-57 peptide; Human HMGB1-40-57
# T5 peptide: EFSKKCSERWKTMSAKEK
# [7] = target: T6, peptide corresponding to amino acid residues 46-63 of human HMGB2 (human, also: biotinylated (position not given here)); assay: peptide ELISA
# T6 construct: also called HMGB2 46-63 peptide; huHMGB2-46-63-B
# T6 peptide: SERWKTMSAKEKSKFEDM
# recombinant rat HMGB1 = target: T7, recombinant rat HMGB1 (rat, UniProt P63159 1-215); assay: sandwich ELISA, mAb as capture antibody, polyclonal antibody or 6E6 as detector
# T7 sequence: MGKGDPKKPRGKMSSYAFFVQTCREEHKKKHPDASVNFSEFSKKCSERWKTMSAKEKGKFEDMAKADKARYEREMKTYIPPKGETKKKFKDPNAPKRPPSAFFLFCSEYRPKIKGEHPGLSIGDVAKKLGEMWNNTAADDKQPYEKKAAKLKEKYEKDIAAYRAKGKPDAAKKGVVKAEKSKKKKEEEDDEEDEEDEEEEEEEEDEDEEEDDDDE
# Procedure: In the first method, ELISA plates were coated with a number of purified anti-HMGB1 mAbs (e.g., 2E11 HMGB1 mAb, 2G5 HMGB1 mAb, 2G7 HMGB1 mAb, 6E6 HMGB1 mAb), and incubated overnight at 4° C. The plates were then blocked with PBS, 1% BSA for one hour at 37° C. After washing, recombinant rat HMGB1 was added at the indicated concentrations, and the plates were incubated at room temperature for 1 hour. The plates were then washed and incubated with rabbit polyclonal antibodies against HMGB1 at 2 μg/ml (see U.S. Pat. Nos. 6,303,321, 6,448,223 and 6,468,533). After 1 hour at room temperature, the plates were washed and incubated for 30 minutes with goat anti-rabbit Ig-HPR (Jackson ImmunoResearch Laboratories, West Grove, Pa.) diluted at 1:1000 in PBS. After washing, the plates were developed with TMB (Invitrogen, San Diego, Calif.) and absorbance at 655 nm was measured using a plate reader.
# As depicted in FIGS. 14 and 15, two different ELISA methods were used to examine the properties of particular anti-HMGB1 monoclonal antibodies. In one method, HMGB1 monoclonal antibodies 2E11 HMGB1 mAb, 2G5 HMGB1 mAb, 2G7 HMGB1 mAb, and 6E6 HMGB1 mAb, were used as capture antibodies and a polyclonal HMGB1 antibody was used as the detector antibody. […]
# [8] = target: T8, peptide corresponding to amino acid residues 53-70 of human HMGB1 (human); assay: peptide ELISA (FIGS. 22 and 23)
# T8 construct: Non-biotinylated; also called HMGB1 53-70 peptide; huHMGB1-53-70
# T8 peptide: SAKEKGKFEDMAKADKAR
# Procedure: as §1
# as §2, with “200 μl of blocking buffer (5% nonfat dry milk in PBS, 0.05% Tween 20™) was added to each of the wells. The plates were covered and incubated for 60 minutes at room temperature. The wells were then washed three times with PBS, 0.05% Tween 20™ using a volume greater than 100 μl.” left out
# [9] = target: T9, peptide corresponding to amino acid residues 67-84 of human HMGB1 (human); assay: peptide ELISA (FIG. 24)
# T9 construct: Non-biotinylated; also called HMGB1 67-84 peptide; Human HMGB1-67-84
# T9 peptide: DKARYEREMKTYIPPKGE
# Procedure: as §1
# as §2, with “200 μl of blocking buffer (5% nonfat dry milk in PBS, 0.05% Tween 20™) was added to each of the wells. The plates were covered and incubated for 60 minutes at room temperature. The wells were then washed three times with PBS, 0.05% Tween 20™ using a volume greater than 100 μl.” left out
# [10] = target: B5; assay: peptide ELISA (FIG. 13B)
# Procedure: as §1, §2
# [11] = target: T8, peptide corresponding to amino acid …; assay: peptide ELISA
# [12] = target: T10, peptide consisting of a scrambled sequence of amino acid residues 61-78 of human HMGB1; assay: peptide ELISA
# T10 construct: Non-biotinylated; scrambled control; also called Human HMGB1-61-78_scr
# T10 peptide: AKDYMEARKDTEYKMARE
# 2E11 HMGB1 mAb [13] = target: B1; assay: competition ELISA: peptide in solution against plate-bound HMGB1
# 2G7 HMGB1 mAb [14] = target: B2; assay: competition ELISA: peptide (0.33-243 µM) with 2 µg/ml antibody, plate coated with recombinant rat HMGB1
# Procedure: (§3) HMGB1 peptide binding experiments using 2G7 HMGB1 mAb were conducted. As described, biotinylated synthetic peptides corresponding to either amino acid residues 46-63 of human HMGB1 or amino acid residues 61-78 of human HMGB1 were prepared and analyzed for binding to 2G7 HMGB1 mAb (2G7) by ELISA. Briefly, 2 μg/ml of 2G7 HMGB1 mAb was added to plate wells containing either the HMGB1 46-63 peptide or the HMGB1 61-78 peptide at each of the indicated concentrations (0, 0.33, 1, 3, 9, 27, 81 and 243 μM peptide) for one hour at 25° C. to prepare antibody-peptide samples. ELISA plates were coated with 10 μg/ml of recombinant rat HMGB1, and incubated overnight at 4° C. The plates were then blocked with reconstituted milk for one hour at 37° C. Antibody-peptide samples were then added at the concentrations listed above and incubated for one hour at room temperature. The plates were then washed and incubated with Streptavidin-HRP. After washing, the plates were developed with TMB (Invitrogen, San Diego, Calif.) and absorbance at 655 nm was measured using a plate reader.
# 2G7 HMGB1 mAb [15] = target: B2; assay: competition ELISA: peptide in solution against plate-bound recombinant rat HMGB1
# Procedure: as §3
# 2E11 HMGB1 mAb [16] = target: B1; assay: competition ELISA: peptide in solution with the antibody, plate-bound HMGB1
binder,measurement,setting,value
B1,binding result,[1],binds
same,binding result,[2],no binding (tested: 2 µg/ml antibody)
same,binding result,[3],no binding (tested: 2 µg/ml antibody)
B2,binding result,[4],binds
same,binding result,CHO HMGB2,no binding (tested: 2 µg/ml antibody)
same,binding result,[5],no binding (tested: 2 µg/ml antibody)
same,binding result,[6],no binding (tested: 2 µg/ml antibody)
same,binding result,[7],no binding (tested: 2 µg/ml antibody)
same,binding result,recombinant rat HMGB1,binds
same,binding result,[8],binds
B3,binding result,[9],binds
same,binding result,[10],binds
same,binding result,[11],no binding (tested: 2 µg/ml antibody)
same,binding result,[12],no binding (tested: 2 µg/ml antibody)
same,binding result,recombinant rat HMGB1,binds
B4,binding result,2E11 HMGB1 mAb [13],no binding
same,binding result,2G7 HMGB1 mAb [14],binds
B5,binding result,2G7 HMGB1 mAb [15],no binding (tested: up to 243 µM peptide)
B6,binding result,2E11 HMGB1 mAb [16],binds
